# Assay results: patent US20080267944
# Test system: prothrombin
substance,measurement,value
recombinant prothrombin activating protease (rLopap),prothrombin activation (thrombin formation followed with S-2238 chromogenic substrate),The native Lopap and the rLopap are able to activate prothrombin using preferentially the S-2238 substrate
same,"prothrombin activation, compared with native Lopap","in same concentrations, rLopap is less efficient"
same,"prothrombin hydrolysis (SDS-PAGE of fragments; prothrombin 10 uM, rLOPAP 2 uM)","Under non-reduced conditions bands of 72 kDa (prothrombin), of 52 kDa probably corresponding to the prothrombin F1.2, one of 36 kDa corresponding to the thrombin or to the prethrombin 2, and one of 24 kDa corresponding to the fragment 1 (F1) of the prothrombin could be observed"
same,prothrombin hydrolysis in presence and absence of Factor Va (SDS-PAGE),The same hydrolysis standards were obtained in presence and in absence of the Factor Va
